Test results taken from paper PMC9822835 (Computational and Structural Biotechnology Journal, 2022).

Biological target: Tumor necrosis factor alpha (TNF-α) (Homo sapiens, UniProt P01375)
Test: SPR

Chain of Tumor necrosis factor alpha (TNF-α) (P01375 whole entry): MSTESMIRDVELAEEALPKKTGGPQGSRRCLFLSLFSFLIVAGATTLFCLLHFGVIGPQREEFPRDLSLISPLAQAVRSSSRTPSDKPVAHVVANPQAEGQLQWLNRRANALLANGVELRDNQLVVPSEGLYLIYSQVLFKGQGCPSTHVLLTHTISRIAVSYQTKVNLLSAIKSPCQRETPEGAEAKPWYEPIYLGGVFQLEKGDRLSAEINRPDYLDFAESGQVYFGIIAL

B1: VHH2^E50V&T53W (VHH)
VHH: QVQLVESGGGLVQPGGSLRLSCAASGFTFSNYWMYWVRQAPGKGLEWVSVINWNGLITKYPDSVKGRFTISRDNAKNTLYLQMNSLKPEDTALYYCARSPSGFNRGQGTQVTVSS
- Kd: 4.6 nM
